Source: article PMC9129000, “RADA-dependent branch migration has a predominant role in plant mitochondria and its defect leads to mtDNA instability and cell cycle arrest”

Biological target: T1, RADA K201A (Arabidopsis thaliana, UniProt F4K8X8 49-627, K201A)
T1 sequence: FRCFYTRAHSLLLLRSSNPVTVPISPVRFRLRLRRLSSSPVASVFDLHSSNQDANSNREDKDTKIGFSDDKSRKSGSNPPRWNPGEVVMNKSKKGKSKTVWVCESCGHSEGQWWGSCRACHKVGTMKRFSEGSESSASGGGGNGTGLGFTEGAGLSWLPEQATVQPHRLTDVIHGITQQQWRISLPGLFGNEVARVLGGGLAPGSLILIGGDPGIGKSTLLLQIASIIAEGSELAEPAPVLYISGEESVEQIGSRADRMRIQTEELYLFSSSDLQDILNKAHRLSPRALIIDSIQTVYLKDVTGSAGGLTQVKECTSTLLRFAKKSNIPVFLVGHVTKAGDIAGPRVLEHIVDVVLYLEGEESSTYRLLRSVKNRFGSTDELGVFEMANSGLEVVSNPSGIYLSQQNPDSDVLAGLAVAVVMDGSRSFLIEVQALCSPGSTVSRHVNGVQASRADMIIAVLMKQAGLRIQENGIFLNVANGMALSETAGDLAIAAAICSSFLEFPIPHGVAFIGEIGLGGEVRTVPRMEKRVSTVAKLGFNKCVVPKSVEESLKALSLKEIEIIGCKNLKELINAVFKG
Experiment: EMSA; affinity comparable to WT; 20 mM Tris-HCl pH 7.5, 50 mM KCl, 5 mM MgCl2, 0.5 mM EDTA, 10% glycerol, 1 mM DTT, protease inhibitors; 20 C, 20 min; 8 or 4.5% PAGE in TBE at 4 C
Conditions: protein: recombinant; tags: N-terminal His (pET28a); chain copies: 6; label: 5'-32P; single strand

B1: EMSA ssDNA (ssDNA)
DNA: GACGCTGCCGAATTCTACCAGTGCCTTGCTAGGACATCTTTGCCCACCTGCAGGTTCACCC
- binding result: binds
